Publication PMC3847938, “Biochemical and kinetic characterisation of a novel xylooligosaccharide-upregulated GH43 β-D-xylosidase/α-L-arabinofuranosidase (BXA43) from the probiotic Bifidobacterium animalis subsp. lactis BB-12” (AMB Express, 2013)

Key:
[1] = biological target: T1, BXA43 (Bifidobacterium animalis, UniProt B8DTK7); assay: p-nitrophenol release at […] nm, initial rates, fit with substrate inhibition; assay type: biochemical; settings: 50 mM Na-acetate pH 5.2, 40 °C; substrate inhibition by pNPX itself (uncompetitive), second site
T1 construct: gene xynB; full-length ORF 541 residues, C-terminal His-tag, pET24(+), E. coli BL21(DE3); theoretical mass 61,774 Da, about 62 kDa on SDS-PAGE
T1 sequence (B8DTK7 1-541): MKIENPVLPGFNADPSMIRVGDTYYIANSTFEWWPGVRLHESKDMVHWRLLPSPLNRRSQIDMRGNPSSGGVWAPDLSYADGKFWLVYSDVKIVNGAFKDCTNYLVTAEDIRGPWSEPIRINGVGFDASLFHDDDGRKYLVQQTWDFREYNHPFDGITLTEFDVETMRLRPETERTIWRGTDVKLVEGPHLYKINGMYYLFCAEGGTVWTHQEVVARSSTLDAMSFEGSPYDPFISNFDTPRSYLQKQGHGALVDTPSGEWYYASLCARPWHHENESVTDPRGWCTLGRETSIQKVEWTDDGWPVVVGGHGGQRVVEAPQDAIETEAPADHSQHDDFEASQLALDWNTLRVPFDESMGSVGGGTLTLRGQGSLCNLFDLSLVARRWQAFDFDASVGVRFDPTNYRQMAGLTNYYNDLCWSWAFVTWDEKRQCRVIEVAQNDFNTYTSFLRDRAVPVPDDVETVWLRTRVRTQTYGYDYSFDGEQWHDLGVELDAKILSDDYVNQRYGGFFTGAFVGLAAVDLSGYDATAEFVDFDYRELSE

[2] = substrate: O=[N+]([O-])c1ccc(O[C@@H]2OC[C@@H](O)[C@H](O)[C@H]2O)cc1; assay: purified protein; assay type: biochemical, Bifidobacterium animalis; settings: 50 mM Na-acetate pH 5.2, 40 °C, 0.25–80 mM pNPX, 7.8 nM enzyme, error printed as ± 4.6

**Q.** How did the Ki [1] turn out when `O=[N+]([O-])c1ccc(O[C@@H]2OC[C@@H](O)[C@H](O)[C@H]2O)cc1` [para-nitrophenyl-β-D-xylopyranoside] was run?
**A.** Its Ki is 29.6 ± 8.5 mM.

B1: BXA43 (Bifidobacterium animalis subsp. lactis AD011) (protein)
chain: MKIENPVLPGFNADPSMIRVGDTYYIANSTFEWWPGVRLHESKDMVHWRLLPSPLNRRSQIDMRGNPSSGGVWAPDLSYADGKFWLVYSDVKIVNGAFKDCTNYLVTAEDIRGPWSEPIRINGVGFDASLFHDDDGRKYLVQQTWDFREYNHPFDGITLTEFDVETMRLRPETERTIWRGTDVKLVEGPHLYKINGMYYLFCAEGGTVWTHQEVVARSSTLDAMSFEGSPYDPFISNFDTPRSYLQKQGHGALVDTPSGEWYYASLCARPWHHENESVTDPRGWCTLGRETSIQKVEWTDDGWPVVVGGHGGQRVVEAPQDAIETEAPADHSQHDDFEASQLALDWNTLRVPFDESMGSVGGGTLTLRGQGSLCNLFDLSLVARRWQAFDFDASVGVRFDPTNYRQMAGLTNYYNDLCWSWAFVTWDEKRQCRVIEVAQNDFNTYTSFLRDRAVPVPDDVETVWLRTRVRTQTYGYDYSFDGEQWHDLGVELDAKILSDDYVNQRYGGFFTGAFVGLAAVDLSGYDATAEFVDFDYRELSE
notes: full-length ORF 541 residues, C-terminal His-tag, pET24(+), E. coli BL21(DE3); theoretical mass 61,774 Da, about 62 kDa on SDS-PAGE
**Q.** How did the Km [2] turn out when B1 was run?
**A.** The Km was 15.6 ± 4.2 mM.

**Q.** What about the kcat [2] of the same molecule?
**A.** Its kcat is 60.6 ± 10.8 s⁻¹.
